Source: the supplement of paper PMC12042874
± gives the uncertainty stated by the source.

Assay: amyloid nucleation score (Sup35N fusion, yeast selection) (log enrichment); library NNK3; higher = more nucleation; inactive = no reads after selection
Summary of the method: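 On medium lacking adenine and uracil, psi-negative yeast expressing peptides of 20 random codons fused to Sup35N were grown 7 days at 30°C after a 24-hour induction with 100 μM copper sulfate. Illumina sequencing of input and output plasmid inserts gave the reads, and sequences under 100 input reads were excluded. The nucleation score is the DiMSum log enrichment of output over input reads, centred on the mode score of non-aggregating sequences.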

| Substance | amyloid nucleation score |
| --- | --- |
| LNQGHYSVDLSSATGTVTTF | inactive |
| VIRQVCYYRLGEWLLGAR | inactive |
| DNRSL | -0.501 ± 0.66 |
| RPRNLSLASYTDSVMRFGLS | inactive |
| RKGSVKEFRYNMSNLESVCS | inactive |
| VKRADNSSSALRWYLNMYNL | inactive |
| PWIGVNINSSVLVMVFGGGM | 1.97 ± 0.079 |
| KGCPVASMAQWNSCMCYVLV | 1.08 ± 0.12 |
| CIRVTMSNMMVESWVYGDKP | 0.586 ± 0.15 |
| KRDLGTNAFTMNRRCYQDTL | inactive |
| GYMSLLHSKPPFWSNP | 0.465 ± 0.64 |
| NSYGPRKSSGRVAPF | inactive |
| CCCRIEYHGVHGATSHSQTV | inactive |
| GSACFPYFYTYSFRFLVAC | inactive |
| GSYFN | inactive |
| GRPRVI | inactive |
| LCFNR | inactive |
| CRYYNSC | inactive |
| LVVLLFYFCYSHGYDEKVQW | 0.996 ± 0.12 |
| KDTQWALYRNL | inactive |
| RNSVFLCKGIQVYLVLVIVV | inactive |
| RCIGALRTRPSTEGRTSLRI | inactive |
| CATFFAKLQYNYH | 1.28 ± 0.12 |

| Substance | amyloid nucleation score |
| --- | --- |
| SCIRNSLRLNSFSVFFLAFH | inactive |
| GMFARHVFMIIEPHRIIVFH | inactive |
| LQPCKNMSTLSQNPTLRCPF | inactive |
| VVDLIFLSLF | inactive |
| FSIIKFYWAEYWARRGEIVR | inactive |
| PLDVNGYMNVTSGRRMCARR | inactive |
| VGLISGVCDDGSGSMSSRLW | inactive |
| PELLEHYMSHF | inactive |
| SGGYDQSQALNRLVGWRVYC | -0.301 ± 1 |
| WMMNIDYTNSW | inactive |
| FDMVFVLENRLYRSMANLSF | inactive |
| WANMTFTELSYIK | inactive |
| HWIHGRR | inactive |
| CSIYNCMSHHKRVTG | 1.2 ± 0.15 |
| WRSCSKDHLCFQSPVMPLSR | 0.214 ± 0.42 |
| WISIVQW | inactive |
| HKNEVKWFFFQPGKEMLGGR | inactive |
| VSLKVFYGNKDARNRDIPTL | inactive |
| ESVCYLFCYSHYLGNYGYGS | inactive |
| NNIIVVKTAS | inactive |
| INNAPFNLPLANK | inactive |
| FGTNVLYAFM | inactive |
| EYLPEQPVCIVMSYTPKFPC | inactive |

| Substance | amyloid nucleation score |
| --- | --- |
| VIRVKSSCLVLLEHKLLACG | inactive |
| NFSIRCTWLVVNNAVDLRDN | 2.94 ± 0.049 |
| CMFNGGDWNHNVRELGRQSS | inactive |
| SLHWVYYIINYTVALTGVLL | inactive |
| GSGCVIYIL | inactive |
| GVYSVTCMFYKWEVGWSSSD | inactive |
| LGQRWHVMLVLMSVYIF | inactive |
| FDLLRSNYYSFRCVCEVIDR | inactive |
| FKMPTIRLVLK | inactive |
| VYKWRAYIEHSNFWAIKPVC | inactive |
| CLVTGWISSILNWFLYWNWE | inactive |
| RTLSNFSGKVVLLI | inactive |
| ISPYIIVPY | inactive |
| LQLLRIGHWMLPCCWRILLV | inactive |
| CMVLRYVTVVSGMSQAKRMY | inactive |
| SAYSVHLSSVHFELVVET | inactive |
| RAKVNSRGCEESFF | -0.007 ± 0.73 |
| ACTRWS | inactive |
| RFAPFMRGM | -0.784 ± 1.5 |
| SRPLHFVYVIWGCPDQSDRN | inactive |
| VYNLIRLFLYPTVISSITPL | inactive |
| SDCCYRTYVEIQKWSLVF | inactive |
| RSDVI | inactive |

| Substance | amyloid nucleation score |
| --- | --- |
| DAGYDVVLGSMAMVSVGTCL | inactive |
| TSMSGYRTRNPMTVPHHCVV | inactive |
| SAWVIIIMLARYVAIS | inactive |
| DEANRYPRYLYILERLAYRK | inactive |
| FFCSSTPKSWMCKQTL | inactive |
| HNDSYRMWGRGPPIVLT | inactive |
| LMLANVNAA | inactive |
| NSNSYLGTNFILNQYVLCID | inactive |
| MRCGRIDGDFGFAPRLRGTM | 0.902 ± 0.14 |
| CLQSARYKIFCFFYFDVLSH | inactive |
| CNCVAKDKVMLHVSRRRADF | 0.201 ± 0.72 |
| PVQACRCKSH | inactive |
| HHHRLARTPHDIVPRQKLVV | inactive |
| VLCNYGCGIDFAV | 0.181 ± 0.53 |
| SMIYRLRSWVQYCDSQC | 0.344 ± 0.21 |
| WSFVPRGIVVSRRLSVYTRT | inactive |
| FGYPMPIRNVSVVPVLFYKG | inactive |
| FSALQWGSRTYIFVYSGNMS | 0.658 ± 0.24 |
| IQCIWDIVGDCWCNSSMGKE | inactive |
| ECLLPKIAMHVKRMVPQFGT | inactive |
| IVESQRDASVLRSIPSIRIN | inactive |
| WFFFDIAWRSPTIRRWTSSM | inactive |
| MYPYAITVTGMFLLVPSCLD | inactive |

| Substance | amyloid nucleation score |
| --- | --- |
| NKNSVFSLSYPYYVTCVGTY | inactive |
| SRVFARFDEEDRDNSRKRTV | inactive |
| FATVYELAYYQGTYCKVRCS | 0.148 ± 0.78 |
| PEVCEPLLGFLCFCPVNSVP | inactive |
| NWRLCFNRGRCRYMIMLQKF | inactive |
| VLSMRHSNTGMARCTDW | inactive |
| TPLTPSGRLGFLTK | 0.7 ± 0.21 |
| GFGGSSAHDRGYETRKSSLE | inactive |
| FFFVSSIRIICRV | inactive |
| RLTARLINGMDY | 1.27 ± 0.1 |
| RTSVYAALSWGEAVLREVFE | inactive |
| TRNSYCTFRGGIIFCL | 1.25 ± 0.09 |
| PVLSYMRMSI | inactive |
| HEVAAPRRRHSSMLVAGSAG | inactive |
| LCSYGVGWD | inactive |
| KFVVDARFVTS | 1.33 ± 0.13 |
| CCLTIGSKPIYHCWQLGIMA | inactive |
| WYMECTVACSSIICSWKWGL | inactive |
| HYKKYITPVQRVGCADPSHC | inactive |
| PMSVRRTVFCPSTSM | inactive |
| IVADLHIHCEPRFSSHLTYE | inactive |
| MRRSMAVAMNRSVLYDEC | 0.581 ± 0.16 |
| GYRKMVTLYVDDGNHVYRFL | inactive |

| Substance | amyloid nucleation score |
| --- | --- |
| LYVVCKLSHRPHNAWEKRVP | 0.315 ± 0.29 |
| LFSQCSLITHG | inactive |
| CFMHPADIPSMAVVVYLCAG | inactive |
| STCLTD | inactive |
| RVIKVGHMFKWSRAVGGGKT | -0.514 ± 1.7 |
| TMLWYLDDSSSNIREKSHGM | inactive |
| SCECSSNMGEAFRKLVGTSA | inactive |
| PKFAHSEHVVNSNLFYCVEA | inactive |
| VEFTN | inactive |
| FSSMF | inactive |
| VNRKEIRHVRLLCPSRGSVA | -0.091 ± 0.43 |
| ARLETHCFMRRRGQF | inactive |
| IKLFLIHTTPSFPNTREHDL | inactive |
| VTNPLGPFMDRF | inactive |
| RIFYKVDTDGIIIIVYS | inactive |
| WYVYKFCEPVGDRGRFVWCL | -0.212 ± 0.84 |
| FSVANGHRVM | inactive |
| CCAVLFRGVRGMVRCNWNFD | inactive |
| VTDEIFELSGKVTIDSAEL | inactive |
| CYGFSK | inactive |
| TIHIHFVGHDVCNRVVGVHH | 1.24 ± 0.18 |
| VTCCLLFLDCGVGSRMMLGL | -0.356 ± 0.98 |
| YLFEYSEV | inactive |

| Substance | amyloid nucleation score |
| --- | --- |
| WCFYFEQDMFHAPY | -0.106 ± 0.82 |
| TWVVLG | inactive |
| CVSPDCMLMGAHDYGVERWL | inactive |
| MHAMNVMAGVRLALVYVRSN | inactive |
| PMMVWFSNFLYVASMGPDSF | inactive |
| VSTGSAGSLWSV | inactive |
| FSHGFSIYRLKKT | inactive |
| CYVNYWESDMLRTAVPNCTF | inactive |
| RYKAVRRKYPGCRLGWMRPL | inactive |
| VMYGIL | inactive |
| FCVTQWRAQRASHLYFMPGE | inactive |
| SSAGVGVAKVGARHRLRRCW | inactive |
| ILTCFFSQEMIWHFLDTYDY | 0.522 ± 0.24 |
| RDHWNELGRDYGWTLCKKAY | inactive |
| YINLFLLSGSFVFRVDHHFI | 2.47 ± 0.088 |
| TACVFPLMFTTVPGFFFVVE | inactive |
| MLNSLFAMNTILKW | 0.876 ± 0.083 |
| QKHNSIFMLAVCCYKSCKQ | 1.07 ± 0.084 |
| GNALSAFPVGSFRKVVRCHG | inactive |
| SHYRDK | inactive |
| RRVGSWTYVSFSDGI | 0.239 ± 0.41 |
